Consider one molecule from article PMC3504009 (PLoS ONE, 2012).

In this test the target is T1, YscUCC, C-terminal polypeptide of the cleaved cytosolic domain YscUC of YscU, wild type (Y. pseudotuberculosis, UniProt P69987 264-354).
T1 sequence: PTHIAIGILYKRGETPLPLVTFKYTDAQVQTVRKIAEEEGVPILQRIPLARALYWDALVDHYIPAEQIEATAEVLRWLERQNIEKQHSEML
Kind of test: circular dichroism, dissociation kinetics. Particulars: both partners purified. (CD spectra are sensitive to the conformation of chiral molecules.)

B1: YscUCN, N-terminal cytoplasmic polypeptide of the cleaved cytosolic domain YscUC of YscU (domain or fragment)
chain: IKELKMSKDEIKREYKEMEGSPEIKSKRRQFHQEIQSRNMRENVKRSSVVVAN
With B1, the binding result is recorded as “binds”.
